# Assay results from article PMC3365654 (The Febs Journal, 2012).
# Numbering of substitutions follows the chain as printed.
# B1: wildtype proline-rich (PR) domain of Gab1 (domain or fragment, human, UniProt Q13480 331-530, looked up)
# chain: TSKLDTIPDIPPPRPPKPHPAHDRSPVETCSIPRTASDTDSSYCIPTAGMSPSRSNTISTVDLNKLRKDASSQDCYDIPRAFPSDRSSSLEGFHNHFKVKNVLTVGSVSSEELDENYVPMNPNSPPRQHSSSFTEPIQEANYVPMTPGTFDFSSFGMQVPPPAHMGFRSSPKTPPRRPVPVADCEPPPVDRNLKPDRKVK
# B2: PR domain of Gab1 with the G1 motif mutated (domain or fragment, human, UniProt Q13480 331-530, looked up)
# chain: B1 chain with R14A, K17A
# B3: PR domain of Gab1 with the G2 motif mutated (domain or fragment, human, UniProt Q13480 331-530, looked up)
# chain: B1 chain with R191A, K194A
# Biological target: wildtype full-length Grb2 (human, UniProt P62993 1-217)
# Experiment: ITC
Kd,dH,stoichiometry N,Binder
7.21 µM,-34.5 kcal/mol,1.94,B1
2.24 µM,-23.4 kcal/mol,1.07,B2
20.3 µM,-13.2 kcal/mol,1.02,B3
